Legend:
HbS1c-type αF8P = target: T1, HbS1c-type αF8P
T1 chain: VHLTPVEK

[1] = target: T2, HbA1c-type αF8P (α-fructosyl-valyl-histidyl-leucyl-threonyl-prolyl-glutamyl-glutamyl-lysine)
T2 chain: VHLTPEEK

HbC1c-type αF8P = target: T3, HbC1c-type αF8P
T3 chain: VHLTPKEK

Row | Protein | relative activity (HbS1c/HbA1c), fold over H40-3M before modification (HbS1c-type αF8P) | relative activity on substrate (activity on HbA1c-type αF8P = 100%) (HbS1c-type αF8P) [%] | specific activity on substrate (HbS1c-type αF8P) | relative activity on substrate (reference, designated as 100%) [1] [%] | specific activity on substrate [1] | relative activity (HbC1c/HbA1c), fold over H40-3M before modification (HbC1c-type αF8P) | relative activity on substrate (activity on HbA1c-type αF8P = 100%) (HbC1c-type αF8P) [%] | specific activity on substrate (HbC1c-type αF8P)
1 | CFP-T7-H40-3M K106A (protein) MTSNRADTRVIVVGGGGTIGSSTALHLVRSGYAPANITVLDTFEIPSAQSAGHDLNKIMGIDHGNKVNLQMSLEARQMWKEDELFQPFFHNTGRMDCESTPKGIEALKKYYQKLHDAGAGLEKTHAWLDNEDEILSKMPLLQRDQIQGWKAIWSQDGGWLAAAKAINAIGQFLKERGVKFGFGGAGSFKQPLFDDEGTTCIGVETADGTKYYADKVVLAAGAWSPTLVDLEDQCCSKAWVYAHIQLTPEEAAEYKGVPVVYNSEYGFFFEPDEFGVIKVCNEFPGFSRFKEHQPYGAPSPKRISVPRSHAKHPTDTYPDASEVSIKKAIATFLPRFQDKELFNRALCWCTDTADSTLLMCEHPKWKNFILATGDSGHSFKILPNVGKYVVELIEGRLPEEMAYQWRWRPGGDALKSRRAAPPKDLADMPGWKHDPKL | improved by about 2.1 to 3.3 times | 81 | at least 20 mU/mg | 100 | at least 20 mU/mg | improved by about 2.8 to 9.4 times | 31 | at least 20 mU/mg
2 | CFP-T7-H40-3M K113N (protein) MTSNRADTRVIVVGGGGTIGSSTALHLVRSGYAPANITVLDTFEIPSAQSAGHDLNKIMGIDHGNKVNLQMSLEARQMWKEDELFQPFFHNTGRMDCESTPKGIEKLKKYYQNLHDAGAGLEKTHAWLDNEDEILSKMPLLQRDQIQGWKAIWSQDGGWLAAAKAINAIGQFLKERGVKFGFGGAGSFKQPLFDDEGTTCIGVETADGTKYYADKVVLAAGAWSPTLVDLEDQCCSKAWVYAHIQLTPEEAAEYKGVPVVYNSEYGFFFEPDEFGVIKVCNEFPGFSRFKEHQPYGAPSPKRISVPRSHAKHPTDTYPDASEVSIKKAIATFLPRFQDKELFNRALCWCTDTADSTLLMCEHPKWKNFILATGDSGHSFKILPNVGKYVVELIEGRLPEEMAYQWRWRPGGDALKSRRAAPPKDLADMPGWKHDPKL |  | 95 | at least 20 mU/mg | 100 | at least 20 mU/mg |  | 42 | at least 20 mU/mg
3 | CFP-T7-H40-3M K113Q (protein) MTSNRADTRVIVVGGGGTIGSSTALHLVRSGYAPANITVLDTFEIPSAQSAGHDLNKIMGIDHGNKVNLQMSLEARQMWKEDELFQPFFHNTGRMDCESTPKGIEKLKKYYQQLHDAGAGLEKTHAWLDNEDEILSKMPLLQRDQIQGWKAIWSQDGGWLAAAKAINAIGQFLKERGVKFGFGGAGSFKQPLFDDEGTTCIGVETADGTKYYADKVVLAAGAWSPTLVDLEDQCCSKAWVYAHIQLTPEEAAEYKGVPVVYNSEYGFFFEPDEFGVIKVCNEFPGFSRFKEHQPYGAPSPKRISVPRSHAKHPTDTYPDASEVSIKKAIATFLPRFQDKELFNRALCWCTDTADSTLLMCEHPKWKNFILATGDSGHSFKILPNVGKYVVELIEGRLPEEMAYQWRWRPGGDALKSRRAAPPKDLADMPGWKHDPKL |  | 106 | at least 20 mU/mg | 100 | at least 20 mU/mg |  | 50 | at least 20 mU/mg
4 | CFP-T7-H40-3M K113E (protein) MTSNRADTRVIVVGGGGTIGSSTALHLVRSGYAPANITVLDTFEIPSAQSAGHDLNKIMGIDHGNKVNLQMSLEARQMWKEDELFQPFFHNTGRMDCESTPKGIEKLKKYYQELHDAGAGLEKTHAWLDNEDEILSKMPLLQRDQIQGWKAIWSQDGGWLAAAKAINAIGQFLKERGVKFGFGGAGSFKQPLFDDEGTTCIGVETADGTKYYADKVVLAAGAWSPTLVDLEDQCCSKAWVYAHIQLTPEEAAEYKGVPVVYNSEYGFFFEPDEFGVIKVCNEFPGFSRFKEHQPYGAPSPKRISVPRSHAKHPTDTYPDASEVSIKKAIATFLPRFQDKELFNRALCWCTDTADSTLLMCEHPKWKNFILATGDSGHSFKILPNVGKYVVELIEGRLPEEMAYQWRWRPGGDALKSRRAAPPKDLADMPGWKHDPKL |  | 97 | at least 20 mU/mg | 100 | at least 20 mU/mg |  | 91 | at least 20 mU/mg
5 | CFP-T7-H40-3M K113T (protein) MTSNRADTRVIVVGGGGTIGSSTALHLVRSGYAPANITVLDTFEIPSAQSAGHDLNKIMGIDHGNKVNLQMSLEARQMWKEDELFQPFFHNTGRMDCESTPKGIEKLKKYYQTLHDAGAGLEKTHAWLDNEDEILSKMPLLQRDQIQGWKAIWSQDGGWLAAAKAINAIGQFLKERGVKFGFGGAGSFKQPLFDDEGTTCIGVETADGTKYYADKVVLAAGAWSPTLVDLEDQCCSKAWVYAHIQLTPEEAAEYKGVPVVYNSEYGFFFEPDEFGVIKVCNEFPGFSRFKEHQPYGAPSPKRISVPRSHAKHPTDTYPDASEVSIKKAIATFLPRFQDKELFNRALCWCTDTADSTLLMCEHPKWKNFILATGDSGHSFKILPNVGKYVVELIEGRLPEEMAYQWRWRPGGDALKSRRAAPPKDLADMPGWKHDPKL |  | 104 | at least 20 mU/mg | 100 | at least 20 mU/mg |  | 40 | at least 20 mU/mg
6 | CFP-T7-H40-3M K113S (protein) MTSNRADTRVIVVGGGGTIGSSTALHLVRSGYAPANITVLDTFEIPSAQSAGHDLNKIMGIDHGNKVNLQMSLEARQMWKEDELFQPFFHNTGRMDCESTPKGIEKLKKYYQSLHDAGAGLEKTHAWLDNEDEILSKMPLLQRDQIQGWKAIWSQDGGWLAAAKAINAIGQFLKERGVKFGFGGAGSFKQPLFDDEGTTCIGVETADGTKYYADKVVLAAGAWSPTLVDLEDQCCSKAWVYAHIQLTPEEAAEYKGVPVVYNSEYGFFFEPDEFGVIKVCNEFPGFSRFKEHQPYGAPSPKRISVPRSHAKHPTDTYPDASEVSIKKAIATFLPRFQDKELFNRALCWCTDTADSTLLMCEHPKWKNFILATGDSGHSFKILPNVGKYVVELIEGRLPEEMAYQWRWRPGGDALKSRRAAPPKDLADMPGWKHDPKL | improved by about 2.1 to 3.3 times | 130 | at least 20 mU/mg | 100 | at least 20 mU/mg | improved by about 2.8 to 9.4 times | 103 | at least 20 mU/mg
7 | CFP-T7-H40-3M K113A (protein) MTSNRADTRVIVVGGGGTIGSSTALHLVRSGYAPANITVLDTFEIPSAQSAGHDLNKIMGIDHGNKVNLQMSLEARQMWKEDELFQPFFHNTGRMDCESTPKGIEKLKKYYQALHDAGAGLEKTHAWLDNEDEILSKMPLLQRDQIQGWKAIWSQDGGWLAAAKAINAIGQFLKERGVKFGFGGAGSFKQPLFDDEGTTCIGVETADGTKYYADKVVLAAGAWSPTLVDLEDQCCSKAWVYAHIQLTPEEAAEYKGVPVVYNSEYGFFFEPDEFGVIKVCNEFPGFSRFKEHQPYGAPSPKRISVPRSHAKHPTDTYPDASEVSIKKAIATFLPRFQDKELFNRALCWCTDTADSTLLMCEHPKWKNFILATGDSGHSFKILPNVGKYVVELIEGRLPEEMAYQWRWRPGGDALKSRRAAPPKDLADMPGWKHDPKL |  | 104 | at least 20 mU/mg | 100 | at least 20 mU/mg |  | 38 | at least 20 mU/mg
8 | CFP-T7-H40-3M K106D (protein) MTSNRADTRVIVVGGGGTIGSSTALHLVRSGYAPANITVLDTFEIPSAQSAGHDLNKIMGIDHGNKVNLQMSLEARQMWKEDELFQPFFHNTGRMDCESTPKGIEDLKKYYQKLHDAGAGLEKTHAWLDNEDEILSKMPLLQRDQIQGWKAIWSQDGGWLAAAKAINAIGQFLKERGVKFGFGGAGSFKQPLFDDEGTTCIGVETADGTKYYADKVVLAAGAWSPTLVDLEDQCCSKAWVYAHIQLTPEEAAEYKGVPVVYNSEYGFFFEPDEFGVIKVCNEFPGFSRFKEHQPYGAPSPKRISVPRSHAKHPTDTYPDASEVSIKKAIATFLPRFQDKELFNRALCWCTDTADSTLLMCEHPKWKNFILATGDSGHSFKILPNVGKYVVELIEGRLPEEMAYQWRWRPGGDALKSRRAAPPKDLADMPGWKHDPKL |  | 83 | at least 20 mU/mg | 100 | at least 20 mU/mg |  | 48 | at least 20 mU/mg
